Tests used:
[1] = biological target: human LGR8, recombinant, expressed in 293T cells (human) (UniProt Q8WXD0); assay: competition with 5 nM biotinylated ovine INSL3 for 293T cells expressing LGR8, 4 C 24 h, 125I-streptavidin detection
[2] = biological target: human LGR7, long form (LGR7(1), 757 amino acids), recombinant, expressed in 293T cells (human), Q9HBX9; assay: cell-based or functional assay
human LGR7, long form (LGR7(1), 757 amino acids), recombinant, expressed in 293T cells (human), Q9HBX9, sequence (Q9HBX9 whole entry): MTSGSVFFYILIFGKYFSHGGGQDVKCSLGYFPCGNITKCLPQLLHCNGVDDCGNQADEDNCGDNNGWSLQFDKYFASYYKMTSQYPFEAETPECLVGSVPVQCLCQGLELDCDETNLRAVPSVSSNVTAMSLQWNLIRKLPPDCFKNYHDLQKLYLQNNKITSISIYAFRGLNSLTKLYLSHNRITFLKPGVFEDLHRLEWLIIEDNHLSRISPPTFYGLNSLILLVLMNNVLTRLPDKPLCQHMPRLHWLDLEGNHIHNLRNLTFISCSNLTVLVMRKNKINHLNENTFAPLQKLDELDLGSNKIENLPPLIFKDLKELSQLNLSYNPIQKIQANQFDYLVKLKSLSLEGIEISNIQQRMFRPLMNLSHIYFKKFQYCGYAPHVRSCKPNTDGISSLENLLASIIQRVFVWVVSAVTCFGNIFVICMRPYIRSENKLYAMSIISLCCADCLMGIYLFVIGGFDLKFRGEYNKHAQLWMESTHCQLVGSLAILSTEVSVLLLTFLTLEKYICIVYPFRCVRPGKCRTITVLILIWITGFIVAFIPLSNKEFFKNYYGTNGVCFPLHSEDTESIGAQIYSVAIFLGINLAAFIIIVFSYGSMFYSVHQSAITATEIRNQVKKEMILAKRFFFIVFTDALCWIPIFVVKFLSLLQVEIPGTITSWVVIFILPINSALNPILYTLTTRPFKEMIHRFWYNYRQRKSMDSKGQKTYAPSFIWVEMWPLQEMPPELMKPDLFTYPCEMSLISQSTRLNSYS

UniProt Q8WXD0, sequence (Q8WXD0 whole entry): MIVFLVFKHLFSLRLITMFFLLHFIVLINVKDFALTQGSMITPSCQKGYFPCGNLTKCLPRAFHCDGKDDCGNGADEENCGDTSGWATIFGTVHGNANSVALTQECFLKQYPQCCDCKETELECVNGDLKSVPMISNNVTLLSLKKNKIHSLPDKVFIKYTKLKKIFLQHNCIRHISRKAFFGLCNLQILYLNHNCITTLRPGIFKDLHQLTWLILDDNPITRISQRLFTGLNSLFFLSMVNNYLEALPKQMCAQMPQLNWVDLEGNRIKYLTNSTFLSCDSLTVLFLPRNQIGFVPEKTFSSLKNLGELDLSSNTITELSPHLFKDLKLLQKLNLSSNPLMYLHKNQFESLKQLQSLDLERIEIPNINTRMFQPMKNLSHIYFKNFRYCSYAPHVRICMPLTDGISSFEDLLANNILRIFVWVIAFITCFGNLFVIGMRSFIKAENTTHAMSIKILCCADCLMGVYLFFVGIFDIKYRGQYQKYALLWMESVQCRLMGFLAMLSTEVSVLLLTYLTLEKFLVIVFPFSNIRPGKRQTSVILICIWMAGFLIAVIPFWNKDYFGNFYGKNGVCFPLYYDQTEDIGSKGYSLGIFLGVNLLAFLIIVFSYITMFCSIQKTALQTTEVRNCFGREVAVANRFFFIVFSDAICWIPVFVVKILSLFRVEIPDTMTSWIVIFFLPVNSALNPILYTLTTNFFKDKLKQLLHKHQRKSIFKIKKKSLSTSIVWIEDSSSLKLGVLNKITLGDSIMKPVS

ED50 [1] [nM]	cAMP production by 293T cells expressing human LGR7 [2] [nM]	Molecule
12	–	rat INSL3, chemically synthesized (from UniProt Q9WUK0 103-128; Q9WUK0 103-128) (ligand)
–	0.1	porcine relaxin, P01348 161-182; P01348 25-56 (ligand) chain 1: RMTLSEKCCQVGCIRKDIARLC chain 2: QSTNDFIKACGRELVRLWVEICGSVSWGRTAL
